The target in one data set is Hfq:D9A-S38W (Escherichia coli, UniProt P0A6X3 1-102, D9A;S38W). Briefly: tryptophan fluorescence quenching.
The target in a further data set is Hfq:E18A-S38W (Escherichia coli, UniProt P0A6X3 1-102, E18A;S38W). Briefly: tryptophan fluorescence quenching.

With GUGGUCAGUCGAGUGG (ssRNA) [oligo C], the binding result in the data set with Hfq:D9A-S38W and in the data set with Hfq:E18A-S38W was “binds” in each case.

(Values after PMC4624489.)
